According to paper PMC5063997, “Engineered Tissue Inhibitor of Metalloproteinases-3 Variants Resistant to Endocytosis Have Prolonged Chondroprotective Activity*” (The Journal of Biological Chemistry, 2016):
Positions count from the first letter of the chain named. Names and notes keep the numbering of the source.

Key:
[1] = target: low density lipoprotein receptor-related protein 1 (LRP1), full-length (UniProt Q07954)
[2] = target: low density lipoprotein receptor-related protein 1 (LRP1), full-length (UniProt Q07954); remark: listed apart in the source
[3] = target: low density lipoprotein receptor-related protein 1 (LRP1), full-length (UniProt Q07954 20-4544); assay: cell-based or functional assay
ADAM17 ectodomain = target: T1, ADAM17 ectodomain (UniProt P78536 215-671); assay: enzyme inhibition under equilibrium conditions (Ki(app), tight binding equation); apparent; ADAM17 preincubated with wild-type or mutant TIMP-3 (0.25-25 nM) 1 h at 37 °C, residual activity on a fluorescence-quenched substrate; 50 mM Tris-HCl pH 7.5, 25 mM NaCl, 10 mM CaCl2, 0.05% Brij 35, 0.02% NaN3; conditions: both partners purified
T1 construct: ADAM17, ectodomain; source: gift from Professor Gillian Murphy (University of Cambridge)

[4] = target: T2, catalytic domain of MMP-1 (MMP-1ΔC) (UniProt P03956 100-269); assay: enzyme inhibition under equilibrium conditions (Ki(app), tight binding equation); apparent; metalloproteinase (0.5-1 nM) preincubated with wild-type or mutant TIMP-3 (0.25-25 nM) 1 h at 37 °C, residual activity on fluorescence-quenched substrates; 50 mM Tris-HCl pH 7.5, 150 mM NaCl, 10 mM CaCl2, 0.05% Brij 35, 0.02% NaN3; conditions: both partners purified
T2 construct: MMP-1, catalytic domain
T2 sequence (looked up): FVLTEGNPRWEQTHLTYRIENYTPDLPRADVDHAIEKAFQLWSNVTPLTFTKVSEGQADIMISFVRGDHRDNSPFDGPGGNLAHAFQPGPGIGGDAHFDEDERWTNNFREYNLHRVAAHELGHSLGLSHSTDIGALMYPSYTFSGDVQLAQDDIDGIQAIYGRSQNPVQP

[5] = target: T3, catalytic domain of MMP-2 (MMP-2ΔC) (UniProt P08253 110-444); assay: as above; conditions: both partners purified
T3 construct: MMP-2, catalytic domain

[6] = target: T4, catalytic domain of MMP-3 (MMP-3ΔC) (UniProt P08254 100-272); assay: as above; conditions: both partners purified
T4 construct: MMP-3, catalytic domain

[7] = target: T5, ADAMTS-4 lacking the C-terminal spacer domain (UniProt O75173 213-685); assay: as above; conditions: both partners purified
T5 construct: ADAMTS-4 without its C-terminal spacer domain
T5 sequence (looked up): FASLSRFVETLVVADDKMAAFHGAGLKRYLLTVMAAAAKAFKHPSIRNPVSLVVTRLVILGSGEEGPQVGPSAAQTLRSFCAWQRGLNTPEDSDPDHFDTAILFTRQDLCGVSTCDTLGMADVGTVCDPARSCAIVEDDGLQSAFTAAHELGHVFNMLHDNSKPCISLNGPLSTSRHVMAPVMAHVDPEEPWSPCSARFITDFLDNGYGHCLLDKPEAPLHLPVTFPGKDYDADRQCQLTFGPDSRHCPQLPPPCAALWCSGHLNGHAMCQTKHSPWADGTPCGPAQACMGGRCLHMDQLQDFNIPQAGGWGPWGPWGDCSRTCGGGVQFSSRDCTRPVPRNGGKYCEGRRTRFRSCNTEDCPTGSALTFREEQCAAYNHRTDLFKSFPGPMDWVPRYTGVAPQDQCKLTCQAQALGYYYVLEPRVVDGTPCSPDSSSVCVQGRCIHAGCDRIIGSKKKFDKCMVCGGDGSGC

[8] = target: T6, ADAMTS-5 lacking the C-terminal thrombospondin domain (UniProt Q9UNA0 262-874); assay: as above; conditions: both partners purified
T6 construct: ADAMTS-5 without its C-terminal thrombospondin domain
T6 sequence (looked up): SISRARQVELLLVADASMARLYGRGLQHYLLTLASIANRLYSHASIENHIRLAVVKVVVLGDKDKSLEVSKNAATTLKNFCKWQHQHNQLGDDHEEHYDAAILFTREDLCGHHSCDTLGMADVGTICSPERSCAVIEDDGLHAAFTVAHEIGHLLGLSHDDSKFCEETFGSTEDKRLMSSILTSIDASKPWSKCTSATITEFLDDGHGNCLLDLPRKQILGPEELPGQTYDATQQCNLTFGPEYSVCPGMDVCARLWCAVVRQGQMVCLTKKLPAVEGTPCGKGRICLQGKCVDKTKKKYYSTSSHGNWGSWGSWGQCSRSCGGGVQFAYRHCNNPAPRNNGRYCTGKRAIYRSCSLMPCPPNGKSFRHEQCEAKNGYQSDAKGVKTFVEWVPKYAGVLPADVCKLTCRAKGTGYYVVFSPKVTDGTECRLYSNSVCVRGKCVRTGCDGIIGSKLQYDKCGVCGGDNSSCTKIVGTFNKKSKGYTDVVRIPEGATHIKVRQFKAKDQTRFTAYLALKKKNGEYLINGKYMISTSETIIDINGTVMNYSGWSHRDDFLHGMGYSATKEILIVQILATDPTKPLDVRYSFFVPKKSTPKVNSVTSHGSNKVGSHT

[9] = target: T6, ADAMTS-5 lacking the C-terminal …; assay: enzyme inhibition under equilibrium conditions (Ki(app), tight binding equation); apparent; ADAMTS-5 (0.5 nM) preincubated with TIMP-3 (0.5-10 nM) with heparin (100 nM) 1 h at 37 °C, residual activity 18 h at 37 °C; 50 mM Tris-HCl pH 7.5, 150 mM NaCl, 10 mM CaCl2, 0.05% Brij 35, 0.02% NaN3; conditions: both partners purified

T3 sequence (P08253 110-444, stated change not applied): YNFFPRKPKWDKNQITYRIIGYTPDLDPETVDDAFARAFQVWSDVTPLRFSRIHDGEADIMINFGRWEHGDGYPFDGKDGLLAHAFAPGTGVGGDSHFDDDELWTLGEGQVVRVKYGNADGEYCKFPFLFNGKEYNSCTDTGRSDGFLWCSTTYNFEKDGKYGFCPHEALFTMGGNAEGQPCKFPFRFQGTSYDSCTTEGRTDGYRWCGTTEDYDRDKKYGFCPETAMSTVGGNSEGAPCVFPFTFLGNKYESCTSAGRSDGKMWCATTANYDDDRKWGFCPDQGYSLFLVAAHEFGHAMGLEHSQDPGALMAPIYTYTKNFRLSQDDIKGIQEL
Chain of low density lipoprotein receptor-related protein 1 (LRP1), full-length (UniProt Q07954) (Q07954 20-4544): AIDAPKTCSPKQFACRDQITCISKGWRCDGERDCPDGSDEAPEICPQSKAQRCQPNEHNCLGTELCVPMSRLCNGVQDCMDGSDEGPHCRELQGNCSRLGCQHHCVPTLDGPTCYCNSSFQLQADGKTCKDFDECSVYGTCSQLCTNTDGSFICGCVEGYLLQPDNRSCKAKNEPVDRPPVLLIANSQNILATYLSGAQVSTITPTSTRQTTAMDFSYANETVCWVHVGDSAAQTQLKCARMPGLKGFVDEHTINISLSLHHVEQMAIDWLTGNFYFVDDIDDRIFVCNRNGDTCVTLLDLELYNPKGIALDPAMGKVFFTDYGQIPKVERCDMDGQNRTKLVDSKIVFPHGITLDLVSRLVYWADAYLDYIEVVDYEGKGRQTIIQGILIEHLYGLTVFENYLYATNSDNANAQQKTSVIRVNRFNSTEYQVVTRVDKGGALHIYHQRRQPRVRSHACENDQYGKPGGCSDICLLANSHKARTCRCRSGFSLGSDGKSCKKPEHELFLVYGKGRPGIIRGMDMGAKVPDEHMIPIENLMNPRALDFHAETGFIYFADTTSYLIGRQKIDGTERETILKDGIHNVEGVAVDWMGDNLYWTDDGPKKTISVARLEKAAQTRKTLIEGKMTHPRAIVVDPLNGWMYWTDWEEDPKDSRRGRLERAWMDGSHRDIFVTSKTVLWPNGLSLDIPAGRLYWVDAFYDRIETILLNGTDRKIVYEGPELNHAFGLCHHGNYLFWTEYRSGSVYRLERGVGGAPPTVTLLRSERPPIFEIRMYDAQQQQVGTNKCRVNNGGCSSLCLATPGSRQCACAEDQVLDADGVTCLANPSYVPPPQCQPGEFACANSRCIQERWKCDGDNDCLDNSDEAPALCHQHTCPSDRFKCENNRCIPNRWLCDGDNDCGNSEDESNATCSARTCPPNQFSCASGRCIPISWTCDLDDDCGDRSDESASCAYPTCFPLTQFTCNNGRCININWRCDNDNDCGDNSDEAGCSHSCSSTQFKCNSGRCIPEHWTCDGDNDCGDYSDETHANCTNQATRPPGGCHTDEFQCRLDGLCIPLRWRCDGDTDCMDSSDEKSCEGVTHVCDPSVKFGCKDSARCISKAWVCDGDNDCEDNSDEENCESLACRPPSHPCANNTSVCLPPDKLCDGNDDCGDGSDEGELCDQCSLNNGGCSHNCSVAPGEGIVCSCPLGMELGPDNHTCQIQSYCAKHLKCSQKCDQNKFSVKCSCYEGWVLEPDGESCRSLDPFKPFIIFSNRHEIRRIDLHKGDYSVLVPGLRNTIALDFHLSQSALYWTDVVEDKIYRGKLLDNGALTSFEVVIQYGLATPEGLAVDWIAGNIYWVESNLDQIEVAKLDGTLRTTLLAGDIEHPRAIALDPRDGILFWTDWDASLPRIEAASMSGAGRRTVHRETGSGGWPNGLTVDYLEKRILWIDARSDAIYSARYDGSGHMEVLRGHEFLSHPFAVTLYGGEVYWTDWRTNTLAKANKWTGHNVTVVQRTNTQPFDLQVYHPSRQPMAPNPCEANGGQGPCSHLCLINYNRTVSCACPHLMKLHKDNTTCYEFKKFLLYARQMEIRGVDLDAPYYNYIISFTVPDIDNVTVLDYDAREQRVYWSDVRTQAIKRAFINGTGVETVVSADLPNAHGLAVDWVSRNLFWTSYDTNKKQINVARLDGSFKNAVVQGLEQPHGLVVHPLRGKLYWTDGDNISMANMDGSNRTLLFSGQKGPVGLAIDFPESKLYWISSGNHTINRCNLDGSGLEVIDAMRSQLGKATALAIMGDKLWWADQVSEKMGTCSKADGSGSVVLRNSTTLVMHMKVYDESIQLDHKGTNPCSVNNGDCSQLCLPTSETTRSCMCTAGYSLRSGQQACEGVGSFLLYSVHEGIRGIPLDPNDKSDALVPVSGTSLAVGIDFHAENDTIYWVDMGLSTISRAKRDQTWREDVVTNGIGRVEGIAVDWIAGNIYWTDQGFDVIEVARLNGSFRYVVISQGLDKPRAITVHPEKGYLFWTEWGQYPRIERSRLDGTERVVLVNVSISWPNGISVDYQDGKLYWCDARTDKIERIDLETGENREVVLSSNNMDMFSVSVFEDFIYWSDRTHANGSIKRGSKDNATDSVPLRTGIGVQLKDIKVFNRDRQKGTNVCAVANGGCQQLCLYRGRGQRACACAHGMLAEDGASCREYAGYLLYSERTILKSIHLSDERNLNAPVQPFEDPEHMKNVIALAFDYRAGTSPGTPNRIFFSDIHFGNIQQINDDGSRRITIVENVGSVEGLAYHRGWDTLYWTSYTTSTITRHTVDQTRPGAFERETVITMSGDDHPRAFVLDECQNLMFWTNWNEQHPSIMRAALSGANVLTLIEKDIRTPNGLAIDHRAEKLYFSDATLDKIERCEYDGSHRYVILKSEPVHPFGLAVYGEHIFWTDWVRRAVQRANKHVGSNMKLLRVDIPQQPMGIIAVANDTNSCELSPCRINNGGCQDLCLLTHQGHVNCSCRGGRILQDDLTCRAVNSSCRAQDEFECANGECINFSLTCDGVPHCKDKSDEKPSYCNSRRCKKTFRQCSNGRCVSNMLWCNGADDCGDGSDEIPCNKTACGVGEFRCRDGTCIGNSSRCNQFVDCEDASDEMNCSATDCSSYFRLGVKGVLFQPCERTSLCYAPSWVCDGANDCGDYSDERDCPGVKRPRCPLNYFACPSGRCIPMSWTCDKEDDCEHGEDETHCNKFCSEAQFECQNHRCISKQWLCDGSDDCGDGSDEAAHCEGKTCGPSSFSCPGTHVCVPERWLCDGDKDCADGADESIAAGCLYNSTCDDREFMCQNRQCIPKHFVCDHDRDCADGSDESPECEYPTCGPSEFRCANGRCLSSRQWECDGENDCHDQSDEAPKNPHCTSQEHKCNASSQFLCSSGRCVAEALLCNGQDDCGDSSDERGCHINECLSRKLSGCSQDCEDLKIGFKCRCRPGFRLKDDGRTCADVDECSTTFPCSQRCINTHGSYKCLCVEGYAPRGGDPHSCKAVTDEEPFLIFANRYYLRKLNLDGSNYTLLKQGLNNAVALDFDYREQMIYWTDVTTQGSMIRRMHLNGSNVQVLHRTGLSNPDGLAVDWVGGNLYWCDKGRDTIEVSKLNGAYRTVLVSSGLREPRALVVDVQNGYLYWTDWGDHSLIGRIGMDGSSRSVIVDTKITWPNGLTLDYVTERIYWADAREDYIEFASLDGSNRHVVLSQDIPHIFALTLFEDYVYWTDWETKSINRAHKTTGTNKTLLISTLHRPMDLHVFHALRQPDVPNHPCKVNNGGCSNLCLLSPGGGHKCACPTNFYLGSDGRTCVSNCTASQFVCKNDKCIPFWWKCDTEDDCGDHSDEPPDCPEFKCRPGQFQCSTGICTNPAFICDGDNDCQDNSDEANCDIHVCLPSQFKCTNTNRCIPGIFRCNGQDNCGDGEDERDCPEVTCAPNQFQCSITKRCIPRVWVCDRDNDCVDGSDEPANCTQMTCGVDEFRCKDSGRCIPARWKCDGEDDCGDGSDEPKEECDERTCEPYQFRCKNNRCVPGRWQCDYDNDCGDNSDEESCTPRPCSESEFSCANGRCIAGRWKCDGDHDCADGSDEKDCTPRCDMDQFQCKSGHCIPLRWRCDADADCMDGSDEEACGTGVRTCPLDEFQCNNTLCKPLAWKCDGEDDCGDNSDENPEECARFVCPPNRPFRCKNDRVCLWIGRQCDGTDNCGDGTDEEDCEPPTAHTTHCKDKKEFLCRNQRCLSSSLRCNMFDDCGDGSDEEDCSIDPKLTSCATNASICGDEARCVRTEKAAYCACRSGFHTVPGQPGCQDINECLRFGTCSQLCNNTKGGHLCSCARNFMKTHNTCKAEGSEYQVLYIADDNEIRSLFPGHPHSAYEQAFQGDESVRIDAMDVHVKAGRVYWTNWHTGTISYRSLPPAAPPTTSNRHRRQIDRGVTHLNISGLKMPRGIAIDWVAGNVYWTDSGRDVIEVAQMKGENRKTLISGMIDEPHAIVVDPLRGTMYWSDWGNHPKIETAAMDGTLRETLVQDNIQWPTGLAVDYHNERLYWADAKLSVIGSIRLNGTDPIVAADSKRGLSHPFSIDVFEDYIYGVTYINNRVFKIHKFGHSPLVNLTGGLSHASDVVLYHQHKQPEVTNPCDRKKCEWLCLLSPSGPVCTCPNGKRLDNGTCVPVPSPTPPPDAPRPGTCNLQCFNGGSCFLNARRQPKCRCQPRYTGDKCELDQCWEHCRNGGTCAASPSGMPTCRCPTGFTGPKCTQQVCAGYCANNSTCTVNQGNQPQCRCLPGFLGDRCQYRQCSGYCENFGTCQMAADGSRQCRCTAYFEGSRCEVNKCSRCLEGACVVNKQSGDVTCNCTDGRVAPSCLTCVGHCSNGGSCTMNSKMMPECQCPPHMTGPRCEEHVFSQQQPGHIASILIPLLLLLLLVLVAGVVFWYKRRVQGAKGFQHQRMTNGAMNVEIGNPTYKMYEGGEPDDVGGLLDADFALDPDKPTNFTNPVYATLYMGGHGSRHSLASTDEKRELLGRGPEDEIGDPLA
T4 sequence (P08254 100-272, stated change not applied): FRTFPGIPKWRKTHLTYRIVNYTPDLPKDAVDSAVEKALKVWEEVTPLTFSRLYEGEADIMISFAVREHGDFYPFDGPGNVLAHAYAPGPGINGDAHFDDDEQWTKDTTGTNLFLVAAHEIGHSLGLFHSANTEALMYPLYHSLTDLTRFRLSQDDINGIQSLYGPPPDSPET
Chain of low density lipoprotein receptor-related protein 1 (LRP1), full-length (UniProt Q07954 20-4544) (Q07954 20-4544): as the sequence (Q07954 20-4544) above

B1: TIMP-3 K22A/K110A, C-terminally FLAG-tagged (natural protein)
chain: CTCSPSHPQDAFCNSDIVIRAAVVGKKLVKEGPFGTLVYTIKQMKMYRGFTKMPHVQYIHTEASESLCGLKLEVNKYQYLLTGRVYDGKMYTGLCNFVERWDQLTLSQRAGLNYRYHLGCNCKIKSCYYLPCFVTSKNECLWTDMLSNFGYPGYQSKHYACIRQKGGYCSWYRGWAPPDKSIINATDP
percentage remaining in the medium of HTB94 chondrosarcoma cells after 24 h (1 nM, anti-FLAG immunoblot and densitometry) [1]: > 50%

B2: TIMP-3 K71A, C-terminally FLAG-tagged (natural protein)
chain: B1 chain with A22K, K71A, A110K
half-life of loss from the medium of HTB94 chondrosarcoma cells (1 nM, 0-24 h, anti-FLAG immunoblot and densitometry) [2]: 12.9 h

B3: wild-type TIMP-3 (tissue inhibitor of metalloproteinases-3), C-terminally FLAG-tagged (natural protein, UniProt P35625 24-211, looked up)
chain: B1 chain with A22K, A110K
notes: TIMP-3, secreted into the conditioned medium; source: for the screen also transiently transfected, conditioned medium dialyzed against TBS; not shown: FLAG, C-terminal, kept
half-life of loss from the medium of HTB94 chondrosarcoma cells (1 nM, 0-24 h, anti-FLAG immunoblot and densitometry) [3]: 3.6 h
half-life of uptake from the medium of LRP1 wild-type PEA10 cells (1 nM, 0-8 h); remained at the same level in the medium of LRP1-null PEA13 cells [3]: 1.9 h
Ki (ADAM17 ectodomain): 3540 pM
Ki [4]: 1200 pM
Ki [5]: 600 pM
Ki [6]: 1200 pM
Ki [7]: 190 pM
Ki [8]: 1270 pM

B4: TIMP-3 K27A/K45A, C-terminally FLAG-tagged (natural protein)
chain: B1 chain with A22K, K27A, K45A, A110K
percentage remaining in the medium of HTB94 chondrosarcoma cells after 24 h (1 nM, anti-FLAG immunoblot and densitometry) [1]: > 50%

B5: TIMP-3 K30A/K52A, C-terminally FLAG-tagged (natural protein)
chain: B1 chain with A22K, K30A, K52A, A110K
percentage remaining in the medium of HTB94 chondrosarcoma cells after 24 h (1 nM, anti-FLAG immunoblot and densitometry) [1]: > 50%

B6: TIMP-3 K22A/K157A, C-terminally FLAG-tagged (natural protein)
chain: B1 chain with A110K, K157A
percentage remaining in the medium of HTB94 chondrosarcoma cells after 24 h (1 nM, anti-FLAG immunoblot and densitometry) [1]: > 50%

B7: TIMP-3 K42A/K157A, C-terminally FLAG-tagged (natural protein)
chain: B1 chain with A22K, K42A, A110K, K157A
percentage remaining in the medium of HTB94 chondrosarcoma cells after 24 h (1 nM, anti-FLAG immunoblot and densitometry) [1]: > 50%

B8: TIMP-3 K157A, C-terminally FLAG-tagged (natural protein)
chain: B1 chain with A22K, A110K, K157A
half-life of loss from the medium of HTB94 chondrosarcoma cells (1 nM, 0-24 h, anti-FLAG immunoblot and densitometry) [2]: 7.8 h

B9: TIMP-3 K30A/K76A, C-terminally FLAG-tagged (natural protein)
chain: B1 chain with A22K, K30A, K76A, A110K
percentage remaining in the medium of HTB94 chondrosarcoma cells after 24 h (1 nM, anti-FLAG immunoblot and densitometry) [1]: > 50%

B10: TIMP-3 K42A, C-terminally FLAG-tagged (natural protein)
chain: B1 chain with A22K, K42A, A110K
half-life of loss from the medium of HTB94 chondrosarcoma cells (1 nM, 0-24 h, anti-FLAG immunoblot and densitometry) [2]: 8.8 h

B11: TIMP-3 K45A/K89A, C-terminally FLAG-tagged (natural protein)
chain: B1 chain with A22K, K45A, K89A, A110K
percentage remaining in the medium of HTB94 chondrosarcoma cells after 24 h (1 nM, anti-FLAG immunoblot and densitometry) [1]: > 50%

B12: TIMP-3 K71A/K157A, C-terminally FLAG-tagged (natural protein)
chain: B1 chain with A22K, K71A, A110K, K157A
percentage remaining in the medium of HTB94 chondrosarcoma cells after 24 h (1 nM, anti-FLAG immunoblot and densitometry) [1]: > 50%

B13: TIMP-3 K26A/K45A, C-terminally FLAG-tagged (natural protein, UniProt P35625 24-211, looked up)
chain: B1 chain with A22K, K26A, K45A, A110K
notes: as for B3
Ki (ADAM17 ectodomain): 3780 pM
Ki [4]: 520 pM
Ki [5]: 630 pM
Ki [6]: 920 pM
Ki [7]: 120 pM
Ki [8]: 950 pM

B14: TIMP-3 K42A/K110A, C-terminally FLAG-tagged (natural protein, UniProt P35625 24-211, looked up)
chain: B1 chain with A22K, K42A
notes: TIMP-3, secreted into the conditioned medium; The discussion once calls this mutant K45A/K110A; source: for the screen also transiently transfected, conditioned medium dialyzed against TBS; not shown: FLAG, C-terminal, kept
Ki [9]: 1200 pM
Ki (ADAM17 ectodomain): 2340 pM
Ki [4]: 600 pM
Ki [5]: 600 pM
Ki [6]: 1400 pM
Ki [7]: 240 pM
Ki [8]: 1120 pM
